Experimental data reported in PMC9492545 (Nature, 2022).

Molecular target: T1, SARS-CoV-2 nsp12 (RNA-dependent RNA polymerase with N-terminal NiRAN domain) (SARS-CoV-2, UniProt P0DTD1)
T1 construct: also called WT nsp12; RdRp
Experiment: cryo-EM structure
Settings: both partners purified

B1: SARS-CoV-2 nsp9 (native N terminus) (natural protein)
chain: NNELSPVALRQMSCAAGTTQTACTDDNALAYYNTTKGGRFVLALLSDLQDLKWARFPKSDGTGTIYTELEPPCRFVTDTPKGPKVKYLYFIKGLNNLNRGMVLGSLAATVRLQ
notes: also called native nsp9
B1: binds.
